We go through 1 molecule from US20030165511A1.

This assay addresses bacteriophage P2 of Lactococcus lactis. As to the kind of experiment: cell-based or functional assay.

B1: VHH#1 (VHH)
VHH: QVQLQESGGGLVQAGGSLRLSCTASRRTGSNWCMGWFRQLAGKEPELVVALNFDYDMTYYADSVKGRFTVSRDSGKNTVYLQMNSLKPEDTAIYYCAARSGGFSSNRELYDGWGQGTQVTVSS
B1 returned a neutralisation in microtiter acidification assay (lowest effective concentration) of 47 ng/mL and a reduction in the phage titre (plaque titration on L. lactis LM0230) of more than 99%.
